Measurements from the supplement of paper PMC9170038.

Test system: MS2 coat protein
Assay: apparent KD of MS2 coat protein; designed switch direction (-1 OFF switch, 1 ON switch): 1; higher = weaker reporter binding
How it was run: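 An oligonucleotide input, 200 uM small-molecule ligand, or no input was present during titration of SNAP-549-labelled MS2 coat protein, which was doubled from 0.7 or 1.5 nM to 3 µM. Designed RNA switches had been transcribed on Illumina chips by stalled E. coli RNA polymerase. Apparent KD per design is the median over clusters of curves fitted to normalised cluster fluorescence.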

[1] = Eterna round: R95, input ligand: FMN 200 uM
[2] = Eterna round: R95, input ligand: microRNA oligo, concentration not stated
[3] = Eterna round: R95, input ligand: none
[4] = input ligand: microRNA oligo, concentration not stated

GGUCCAGCCUGAGCUGGACUACAGCAUGUACAUGAGGAUCACCCAUGUCAUGUACAAGUAUGUUGUUUGUCUUAAAA [Sensorship 7 - Jieux - Sensor for hsa-mir-208a] (puzzle: Sensor for hsa-mir-208a)
apparent KD of MS2 coat protein [1]: 0.0808 µM | apparent KD of MS2 coat protein [2]: 0.0375 µM | apparent KD of MS2 coat protein [3]: 0.108 µM

GAUUCACAUGAGGAUCACCCAUGUCGUUUUAUGGGAGGAUAUACGUGGACCGUAGUCCGCGUAGAAGGCCUAAUUG [JL-ss1-3.24 janelle mod] (puzzle: Same State 1)
apparent KD of MS2 coat protein [2]: 0.0921 µM

CCGGUUUAUGGAGGAUAUGGAGCCUUAUUGGCUCCAGAAGGCUAAUAACAUGAGGAUCACCCAUGUCGGCGGUCUAAUGACCGA [Eli NG1ss - 56] (Eterna round: R96, puzzle: Same State NG 1)
apparent KD of MS2 coat protein [4]: 0.0218 µM

UAAUUAAGUCAAGGAUAUCACGUCGAAUAGACGUGAGAAGGUGACCAAUACAUGAGGAUCACCCAUGUAAUACAUGAAUAAUUA [SSNG1/12-B1] (Eterna round: R96, puzzle: Same State NG 1)
apparent KD of MS2 coat protein (input ligand: FMN 200 uM): 0.0277 µM | apparent KD of MS2 coat protein [4]: 0.0358 µM | apparent KD of MS2 coat protein (input ligand: none): 0.0459 µM

UUUGCAUGACGAGGAUAUCAUUUAUUUCUUGAUUGAGAAGGCGUUCUUUUUAAUACCUAACAUGAGGAUCACCCAUGUGACAGU [JR_SSNG1_Sub047] (Eterna round: R96, puzzle: Same State NG 1)
apparent KD of MS2 coat protein [4]: 0.0131 µM

GCGAGCGUACUUGCUACAUGAGGAUCACCCAUGUUCGUUGGACAGGAUAUGGUACCGUUUCGGUACCAGAAGGGUUCACAUGUG [JL SSNG3 3.78] (Eterna round: R96, puzzle: Same State NG 3)
apparent KD of MS2 coat protein (input ligand: FMN 200 uM): 0.142 µM | apparent KD of MS2 coat protein [4]: 0.158 µM | apparent KD of MS2 coat protein (input ligand: none): 0.242 µM

CAGCGCUGUCGAGAGGAUAUGCGGUGAUGGACAUGAGGAUCACCCAUGUUAGCGAUAGCAUUACGGUAGAAGGCUCUACAGCUGC [Soteed] (Eterna round: R96, puzzle: Same State 2)
apparent KD of MS2 coat protein (input ligand: FMN 200 uM): 0.0187 µM | apparent KD of MS2 coat protein [4]: 0.0321 µM | apparent KD of MS2 coat protein (input ligand: none): 0.0474 µM

GUAAUACAUGAGGAUCACCCAUGUCAAUGUAGUCGAGGAUAUGGGUAGCUAUGAGGCGUUCUAGAAGGCGACGAGC [Same State 1 - Mod of Vinnie Teenbexe v.3] (puzzle: Same State 1)
apparent KD of MS2 coat protein [1]: 0.273 µM | apparent KD of MS2 coat protein [2]: 0.151 µM | apparent KD of MS2 coat protein [3]: 0.0522 µM

AACGUUGGCGAGCAGGAUAUCCGCUCAUUAACAUGAGGAUCACCCAUGUUCUGCAAGAUGUGCUAGGAGAAGGGCUGGUCGACAU [Edatar] (puzzle: Same State 2)
apparent KD of MS2 coat protein [1]: 0.0149 µM | apparent KD of MS2 coat protein [2]: 0.0182 µM | apparent KD of MS2 coat protein [3]: 0.0348 µM

CAGCACUAUCGAGAGGAUAUGCGGUGAUGGACAUGAGGAUCACCCAUGUUAGCGAUAGCAUCACGGCAGAAGGCUCUGCUGCUGC [Soteed Omei mod 37] (puzzle: Same State 2)
apparent KD of MS2 coat protein [1]: 0.0106 µM | apparent KD of MS2 coat protein [2]: 0.0176 µM | apparent KD of MS2 coat protein [3]: 0.0241 µM

CCAACAUACAAUUUAAGAUCACAUGAGGAUCACCCAUGUAUGCAGGAUAUCAGCUCGUGUAGAGCUGAGAAGGGCAAUUUAAUU [SSNG3/1-A4] (Eterna round: R96, puzzle: Same State NG 3)
apparent KD of MS2 coat protein (input ligand: FMN 200 uM): 0.103 µM | apparent KD of MS2 coat protein [4]: 0.193 µM | apparent KD of MS2 coat protein (input ligand: none): 0.265 µM

AGCUAUUAAUCAGGAUAUGGUCACAUGAGGAUCACCCAUGUAUAGAUGAUUGAAUGUGGUCUAAACUAGAAGGGAUUGCUAACA [SameState NG2 #57] (Eterna round: R96, puzzle: Same State NG 2)
apparent KD of MS2 coat protein (input ligand: FMN 200 uM): 0.971 µM | apparent KD of MS2 coat protein [4]: 0.232 µM | apparent KD of MS2 coat protein (input ligand: none): 0.745 µM

ACAUGAGACUAAGGAUAUGGUGUACCUACAUGUGACAUGAGGAUCACCCAUGUGGUAAGUAUGACUCAGAAGGUAGAGAUAUGU [Equivalance 75 - Jieux - Same State NG 2] (Eterna round: R96, puzzle: Same State NG 2)
apparent KD of MS2 coat protein (input ligand: FMN 200 uM): 0.0379 µM | apparent KD of MS2 coat protein [4]: 0.28 µM | apparent KD of MS2 coat protein (input ligand: none): 0.436 µM

CAGCGCUGUUGAGAGGAUAUGCGGUGAUGGACAUGAGGAUCACCCAUGUUAGCGACAGCAUUACGGUAGAAGGCUUCACAGCUGC [Soteed Omei mod 16] (puzzle: Same State 2)
apparent KD of MS2 coat protein [1]: 0.0389 µM | apparent KD of MS2 coat protein [2]: 0.126 µM | apparent KD of MS2 coat protein [3]: 0.235 µM

AGUCCAGCGAAAGCUGGACAAAAGUAUGUACAUGAGGAUCACCCAUGUUCAUGUACAAGCUUUUUGCUCGUCUUAAA [JL mod - D95 - 10] (puzzle: Sensor for hsa-mir-208a)
apparent KD of MS2 coat protein [1]: 0.578 µM | apparent KD of MS2 coat protein [2]: 0.0203 µM | apparent KD of MS2 coat protein [3]: 0.62 µM

GUAAAGAAUUAAGGAUAUUGAUUACAUAUGUUUAACAUGAGGAUCACCCAUGUGGGUUGCGGUAUCGAGAAGGUAAAAUAAUAG [Mat - same State NG 2 - JL mod - D86] (Eterna round: R96, puzzle: Same State NG 2)
apparent KD of MS2 coat protein (input ligand: FMN 200 uM): 0.19 µM | apparent KD of MS2 coat protein [4]: 0.131 µM | apparent KD of MS2 coat protein (input ligand: none): 0.174 µM

GGAUAACAUGAGGAUCACCCAUGUCAACAAAGUCGAGGAUAUGGGCAAUUAUAAUUAGAACCAGAAGGCGAAUAGG [Mat - Same State 1 - Mod of UCT - D44] (puzzle: Same State 1)
apparent KD of MS2 coat protein [1]: 0.0559 µM | apparent KD of MS2 coat protein [2]: 0.126 µM | apparent KD of MS2 coat protein [3]: 0.191 µM
